# From the supplement of paper PMC9112550, “Optimization of the antimicrobial peptide Bac7 by deep mutational scanning” (BMC Biology, 2022)
# Tested on: Escherichia coli TOP10
# Assay: shrunken log2 fold change of peptide-encoding DNA abundance (4.5 h post-induction vs induction); higher = less antimicrobial activity (less host growth inhibition)
# Details: time post-induction: 4.5 h; library: site-saturation at positions 5, 18, 19, 20
# 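Also: peptides expressed intracellularly from a pBAD plasmid library in pooled LB shake-flask culture, induced with 0.3% L-arabinose, DNA abundance read by NGS, three biological replicates, DESeq2 with apeglm shrinkage.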
row,Sequence,shrunken log2 fold change
1,RRIRKRPPRLPRPRPRPTHMPRP,0.37
2,RRIRERPPRLPRPRPRPDNVPRP,0.0262
3,RRIRARPPRLPRPRPRPLKYPRP,-0.11
4,RRIRGRPPRLPRPRPRPESPPRP,1.25
5,RRIRCRPPRLPRPRPRPDWKPRP,0.0808
6,RRIRWRPPRLPRPRPRPWMRPRP,0.526
7,RRIRFRPPRLPRPRPRPGTRPRP,0.208
8,RRIRPRPPRLPRPRPRPDTGPRP,0.128
9,RRIRMRPPRLPRPRPRPVIWPRP,0.46
10,RRIRERPPRLPRPRPRPAETPRP,0.0123
11,RRIRQRPPRLPRPRPRPIVDPRP,0.0252
12,RRIRDRPPRLPRPRPRPMHYPRP,0.0552
13,RRIRTRPPRLPRPRPRPFSCPRP,-0.0158
14,RRIRDRPPRLPRPRPRPSLWPRP,1.09
15,RRIRWRPPRLPRPRPRPEWCPRP,0.386
16,RRIRKRPPRLPRPRPRPHCEPRP,0.177
17,RRIRHRPPRLPRPRPRPHLQPRP,-0.129
18,RRIRQRPPRLPRPRPRPSKTPRP,-0.0854
19,RRIRDRPPRLPRPRPRPGLRPRP,0.277
20,RRIRCRPPRLPRPRPRPTYTPRP,-0.793
21,RRIRGRPPRLPRPRPRPLRWPRP,1.33
22,RRIRKRPPRLPRPRPRPWSYPRP,-0.528
23,RRIRLRPPRLPRPRPRPSMIPRP,-1.02
24,RRIRYRPPRLPRPRPRPKYDPRP,-0.324
25,RRIRHRPPRLPRPRPRPENDPRP,0.00527

row,Sequence,shrunken log2 fold change
1,RRIRARPPRLPRPRPRPKNSPRP,-0.0129
2,RRIRTRPPRLPRPRPRPQFCPRP,-0.486
3,RRIRGRPPRLPRPRPRPAWDPRP,0.76
4,RRIRWRPPRLPRPRPRPAASPRP,0.404
5,RRIRGRPPRLPRPRPRPCCGPRP,0.781
6,RRIRERPPRLPRPRPRPADYPRP,-0.379
7,RRIRSRPPRLPRPRPRPMQPPRP,0.0538
8,RRIRERPPRLPRPRPRPKFKPRP,-0.355
9,RRIRTRPPRLPRPRPRPKSCPRP,-0.0893
10,RRIRIRPPRLPRPRPRPDDYPRP,0.07
11,RRIRMRPPRLPRPRPRPAGFPRP,0.733
12,RRIRIRPPRLPRPRPRPKSAPRP,-0.0724
13,RRIRMRPPRLPRPRPRPKAKPRP,0.0227
14,RRIRCRPPRLPRPRPRPQQIPRP,-0.168
15,RRIRARPPRLPRPRPRPQSRPRP,-0.112
16,RRIRVRPPRLPRPRPRPYPGPRP,-0.183
17,RRIRVRPPRLPRPRPRPMDPPRP,-0.56
18,RRIRHRPPRLPRPRPRPAAGPRP,0.323
19,RRIRQRPPRLPRPRPRPNFVPRP,-0.0869
20,RRIRHRPPRLPRPRPRPKLVPRP,-0.017
21,RRIRCRPPRLPRPRPRPWICPRP,-1
22,RRIRRRPPRLPRPRPRPGCCPRP,0.589
23,RRIRRRPPRLPRPRPRPVMAPRP,0.281
24,RRIRMRPPRLPRPRPRPVVGPRP,0.448
25,RRIRSRPPRLPRPRPRPDHWPRP,-0.0678

row,Sequence,shrunken log2 fold change
1,RRIRIRPPRLPRPRPRPLNEPRP,-0.497
2,RRIRPRPPRLPRPRPRPVAHPRP,0.0324
3,RRIRERPPRLPRPRPRPHNPPRP,-0.417
4,RRIRIRPPRLPRPRPRPTNIPRP,-0.237
5,RRIRGRPPRLPRPRPRPVNRPRP,-0.0382
6,RRIRERPPRLPRPRPRPPNIPRP,-0.207
7,RRIRNRPPRLPRPRPRPCIGPRP,0.00845
8,RRIRVRPPRLPRPRPRPGKIPRP,-0.346
9,RRIRDRPPRLPRPRPRPSQLPRP,-0.633
10,RRIRLRPPRLPRPRPRPEFGPRP,0.07
11,RRIRMRPPRLPRPRPRPFELPRP,0.0846
12,RRIRKRPPRLPRPRPRPDRDPRP,0.00592
13,RRIRDRPPRLPRPRPRPRGDPRP,0.231
14,RRIRTRPPRLPRPRPRPYVCPRP,-0.215
15,RRIRVRPPRLPRPRPRPLSAPRP,-0.0281
16,RRIRMRPPRLPRPRPRPVYVPRP,-0.161
17,RRIRLRPPRLPRPRPRPAQVPRP,0.324
18,RRIRPRPPRLPRPRPRPMVRPRP,-0.0349
19,RRIRWRPPRLPRPRPRPLMEPRP,0.835
20,RRIRWRPPRLPRPRPRPHCSPRP,-0.00908
21,RRIRPRPPRLPRPRPRPAHDPRP,6.73e-05
22,RRIRCRPPRLPRPRPRPNFRPRP,0.0821
23,RRIRDRPPRLPRPRPRPRGVPRP,0.393
24,RRIRMRPPRLPRPRPRPTQWPRP,0.479
25,RRIRGRPPRLPRPRPRPTLSPRP,0.313

row,Sequence,shrunken log2 fold change
1,RRIRDRPPRLPRPRPRPYCKPRP,0.0343
2,RRIRQRPPRLPRPRPRPPPGPRP,0.751
3,RRIRARPPRLPRPRPRPYGGPRP,-0.221
4,RRIRGRPPRLPRPRPRPSNLPRP,-0.113
5,RRIRLRPPRLPRPRPRPCESPRP,0.0102
6,RRIRWRPPRLPRPRPRPWHTPRP,0.103
7,RRIRIRPPRLPRPRPRPAMQPRP,0.0843
8,RRIRVRPPRLPRPRPRPENWPRP,0.131
9,RRIRFRPPRLPRPRPRPASWPRP,0.026
10,RRIRKRPPRLPRPRPRPNWIPRP,-0.2
11,RRIRKRPPRLPRPRPRPWGHPRP,-0.0374
12,RRIRWRPPRLPRPRPRPVFMPRP,-0.0684
13,RRIRFRPPRLPRPRPRPQPLPRP,-0.0304
14,RRIRQRPPRLPRPRPRPHNFPRP,-0.154
15,RRIRNRPPRLPRPRPRPLYRPRP,-0.332
16,RRIRERPPRLPRPRPRPVMRPRP,0.453
17,RRIRCRPPRLPRPRPRPLTTPRP,0.729
18,RRIRPRPPRLPRPRPRPEKHPRP,0.418
19,RRIRHRPPRLPRPRPRPCHIPRP,-0.454
20,RRIRDRPPRLPRPRPRPESSPRP,0.27
21,RRIRERPPRLPRPRPRPRLNPRP,-0.156
22,RRIRCRPPRLPRPRPRPGAKPRP,0.309
23,RRIRHRPPRLPRPRPRPPFWPRP,0.0835
24,RRIRTRPPRLPRPRPRPDVCPRP,0.11
25,RRIRYRPPRLPRPRPRPMAQPRP,-0.0848

row,Sequence,shrunken log2 fold change
1,RRIRGRPPRLPRPRPRPFKQPRP,0.13
2,RRIRERPPRLPRPRPRPDTFPRP,-0.00141
3,RRIRDRPPRLPRPRPRPLHWPRP,-0.124
4,RRIRVRPPRLPRPRPRPRDVPRP,-0.113
5,RRIRIRPPRLPRPRPRPSAQPRP,-0.0807
6,RRIRGRPPRLPRPRPRPSVMPRP,0.107
7,RRIRQRPPRLPRPRPRPPGFPRP,0.0259
8,RRIRSRPPRLPRPRPRPRQNPRP,-0.0458
9,RRIRWRPPRLPRPRPRPPTHPRP,0.469
10,RRIRGRPPRLPRPRPRPNRIPRP,0.281
11,RRIRPRPPRLPRPRPRPEKIPRP,-0.0804
12,RRIRMRPPRLPRPRPRPIVIPRP,-0.0284
13,RRIRYRPPRLPRPRPRPMRTPRP,0.176
14,RRIRVRPPRLPRPRPRPNQFPRP,-0.349
15,RRIRLRPPRLPRPRPRPAPQPRP,0.609
16,RRIRRRPPRLPRPRPRPPYKPRP,0.114
17,RRIRHRPPRLPRPRPRPFLEPRP,-0.0353
18,RRIRQRPPRLPRPRPRPMTGPRP,0.0323
19,RRIRWRPPRLPRPRPRPKCKPRP,0.0552
20,RRIRCRPPRLPRPRPRPWTLPRP,-0.282
21,RRIRVRPPRLPRPRPRPTDPPRP,0.328
22,RRIRARPPRLPRPRPRPCIDPRP,0.306
23,RRIRDRPPRLPRPRPRPAKGPRP,-0.0222
24,RRIRLRPPRLPRPRPRPGLVPRP,0.0948
25,RRIRQRPPRLPRPRPRPLMVPRP,-0.13
